Results on 33 molecules are retold here after patent US20110251266, “APTAMER FOR NGF AND USE THEREOF” (Shionogi & Co., Ltd., published 2011).

As a reminder, the IC50 is the midpoint of a concentration-inhibition curve. Read a high IC50 as weaker potency.

Positions count from the first letter of the chain named.

The chains are these.
B1: SEQ4 aptamer (ssRNA)
RNA: GGGAAGCCUGUGGAGCUGCAGGAUGAAAAAAACCCAAAUAUGACAAAUAAAACGGCAACGCAUUGUCACCAACAACUGG
modifications: 2'-F all pyrimidines
B2: SEQ8 aptamer (ssRNA)
RNA: GGGAAGCCUGUGGAGCUGCGGAUAAAAAUAGAGUUUGAUAAACACCUGUAUUAAAACCGCAUUGUCACCAACAACUGG
modifications: 2'-F all pyrimidines
B3: SEQ1 aptamer (ssRNA)
RNA: GGGAAGCCUGUGGAGCUGCAGGAUGAAAAAAACCCAAAAACAAAGACAAUGAUUGAGUAGCAUUGUCACCAACAACUGG
modifications: 2'-F all pyrimidines
B4: SEQ12 aptamer (ssRNA)
RNA: GGGAAGCCUGUGGAGCUGCGAAACAGUGAAACAAACCACAGACUGAGAAAGCAGUAACAGCAUUGUCACCAACAACUGG
modifications: 2'-F all pyrimidines
B5: SEQ6 aptamer (ssRNA)
RNA: GGGAAGCCUGUGGAGCUGCAGGAUGAAAAAAACCCAAAAUUAAAUAAAAAAUAGACGGUGCAUUGUCACCAACAACUGG
modifications: 2'-F all pyrimidines
B6: SEQ7 aptamer (ssRNA)
RNA: B5 RNA with A43G
modifications: 2'-F all pyrimidines
B7: SEQ9 aptamer (ssRNA)
RNA: GGGAAGCCUGUGGAGCUGCUCCACAAGGAUGAAAAAAACCCAAAUAAUAUAUUUAAUCAGCAUUGUCACCAACAACUGG
modifications: 2'-F all pyrimidines
B8: SEQ3 aptamer (ssRNA)
RNA: GGGAAGCCUGUGGAGCUGCAGGAUGAAAAAAACCCAAAAUAAGUAGAAAUGACAGAAUGGCAUUGUCACCAACAACUGG
modifications: 2'-F all pyrimidines
B9: SEQ5 aptamer (ssRNA)
RNA: GGGAAGCCUGUGGAGCUGCUUAAACAAGCAAGUGAAAAAAACCACAGCAAAUGUAAAAAGCAUUGUCACCAACAACUGG
modifications: 2'-F all pyrimidines
B10: SEQ61 aptamer (ssRNA)
RNA: GGGAGAACUUCGACCAGAAGGUCGUAACGAAUAAAACUCCUGCACAAAAAUAUGUGCGCAUACAUGGAUCCUCA
modifications: 2'-F all pyrimidines
B11: SEQ84 aptamer (ssRNA)
RNA: GGGAGAACUUCGACCAGAAGUGAAAGAAACUCCCGAUGAAAGAUGUAACAAACCAUAUGUGCGCAUACAUGGAUCCUC
modifications: 2'-F all pyrimidines
B12: SEQ65 aptamer (ssRNA)
RNA: GGGAGAACUUCGACCAGAAGUGUGAAAAAAACCCAAAUCGAGCACAAAAUUAUGUGCGCAUACAUGGAUCCUCA
modifications: 2'-F all pyrimidines
B13: SEQ32(1) (ssRNA)
RNA: UGUGGAGCUGCUUAAACAAGCAAGUGAAAAAAACCACA
modifications: 2'-F all pyrimidines; 2'-OMe at g10,a14,a15,a16,a18,a19,g20,a22,a23,g24; idT at 5' and 3' ends
B14: SEQ35(2) (ssRNA)
RNA: GGGAAGCCUGUGGAGCUGCAGGAUGAAAAAAACCCAAA
modifications: 2'-F all pyrimidines; 2'-OMe at a4,a5,g6,g10,g18,a20,g21,g22,a29,a30,a31,a32; idT at 5' and 3' ends
B15: SEQ30(1) (ssRNA)
RNA: GGGAUAAAAAUAGAGUUUGAUAAACACCUGUAUUAAAACCC
modifications: 2'-F all pyrimidines; 2'-OMe at a12,g13,a14,g15,g19,a20,a22,a23,a24,a26; idT at 5' and 3' ends

T1 sequence (P01138 122-241, one chain of several): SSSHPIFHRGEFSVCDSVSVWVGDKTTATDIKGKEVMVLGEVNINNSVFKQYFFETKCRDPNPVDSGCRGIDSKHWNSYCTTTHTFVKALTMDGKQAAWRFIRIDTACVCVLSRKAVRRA

One series has as its target T1, beta-NGF (nerve growth factor) (Homo sapiens, UniProt P01138 P01138:122-241). As to the kind of experiment: SPR; blocks NGF-TrkA and NGF-P75; PC-12 neurite inhibition + (Table 2). The settings on record: tags: R&D Systems; chain copies: 2. The procedure:
(§1) As directed in BIAcore Company's protocol, Protein A (21181, PIERCE) was immobilized on a CM5 sensor chip. About 1100 RU of human Trk A-Fc fused with the Fc portion of IgG (175-TK, R&D systems) was immobilized thereon. As the analyte, a mixture of NGF (0.1 μM) and each aptamer (0.33 μM) was injected after being allowed to stand for 30 minutes. […] When NGF binds stronger to a receptor than an aptamer, the aptamer may be removed and NGF may bind to the receptor. […] Using the binding amount of NGF and NGF receptor without an aptamer as 100, the binding amount of NGF and NGF receptor added with an aptamer was determined as a correction value. Here, the binding amount is the RU value at the peak top of the sensorgram of BIAcore (RU value immediately after completion of NGF injection). […] A similar experiment was performed for another receptor P75 (p75-Fc; R&D systems).
(SPR reads the build-up and loss of mass on a sensor chip optically.)
On to UGUGGAGCUGCUUAAACAAGCAAGUGAAAAAAACCACA (ssRNA, 2'-F all pyrimidines) [SEQ32 aptamer], for which the activity was at least 60 % inhibition. On to B1, for which the activity is at least 60 % inhibition. In the case of B2, the activity was at least 60 % inhibition. The same measure, in the same setting: for B3 the value was at least 60 % inhibition; for B4, at least 60 % inhibition; for B5, at least 60 % inhibition.

As to B6, the activity is at least 60 % inhibition. Consider B7, for which the activity was at least 60 % inhibition. Take B8: the activity is at least 60 % inhibition. GGGAUAAAAAUAGAGUUUGAUAAACACCUGUAUUAAAACCC (ssRNA, 2'-F all pyrimidines) [SEQ30 aptamer]: the activity is at least 60 % inhibition. Take B9: the activity is at least 60 % inhibition.

The target in a further series is T1, beta-NGF (nerve growth factor). As to the kind of experiment: SPR; blocks NGF-TrkA and NGF-P75. The following applies: tags: R&D Systems; chain copies: 2. The procedure:
as §1
Consider B10, for which the activity was at least 60 % inhibition. As to B11, the activity was at least 60 % inhibition. In turn, B12 registered an activity of at least 60 % inhibition.

For a further series the target is unchanged. Nature of the series: cell_activity; neurite outgrowth, Neuroscreen-1 cells. The following applies: tags: R&D Systems; chain copies: 2. How it is done:
(§2) The neurite outgrowth inhibitory activity of aptamer was evaluated by using Neuroscreen-1 cell, which is a subclone of PC-12 cells. 2500 Cells per well were cultured for one day in an RPMI-1640 medium containing 2.5% horse serum and 1.25% fetal bovine serum in a 96 well flat-bottom plate coated with collagen type IV. A mixed solution of NGF (final concentration 15 ng/ml or 1.1 nM) prereacted in a serum-free RPMI-1640 medium at room temperature or 37° C. for 30 min to 1 hr and an aptamer (final concentration 500-3 nM) was added. Two or three days later, the cytoplasm and nuclei were stained using Cellomics Neurite Outgrowth Kits (manufactured by Thermo Scientific), and neurite length per cell was measured by Cellomics ArrayScan VTI (manufactured by Thermo Scientific). With the neurite length per cell obtained by culturing the cell for 2 days with the addition of NGF alone as inhibitory activity 0%, and that of the cell obtained by NGF free culture as inhibitory activity 100%, the inhibitory activity of the aptamer was calculated from the neurite length per cell obtained by culturing with the addition of NGF and the aptamer in mixture. […] When the inhibitory activity was 0% or below, ‘0%’ is indicated. When it was not less than 100%, ‘100%’ is indicated. The 50% inhibitory concentration was determined from the concentrations at two, above and below points sandwiching the 50% inhibitory activity.
As to B10, it took 20.7 nM to reach half-maximal inhibition (IC50).

In turn, B11 gave an IC50 of 14.6 nM. The same measure, in the same setting: for B12 the value was 22.2 nM.

Another series has the same target. As to the kind of experiment: cell_activity; 100 nM aptamer; parent 92.7%. The settings on record: tags: R&D Systems human NGF; chain copies: 2. How it is done:
as §2
Inverted dT is added to the 5′ and 3′ terminals. The activity was evaluated using Neuroscreen-1 cells in the same manner as in Example 8.
For CGGAUAAAAAUAGAGUUUGAUAAACACCUGUAUUAAAACCG (ssRNA, as SEQ30(6) [as SEQ30(6) (positions not stated)]) [SEQ30(6) G1:C41 to C:G], the activity amounted to 92 % inhibition.

The target is the same in the next series. As to the kind of experiment: SPR; NGF-TrkA and NGF-P75; no PC-12 inhibition. The settings on record: tags: R&D Systems human NGF; chain copies: 2. How it is done:
as §1
UGUGGAGCUGCUAAACAGCAAGUGAAAAAAACCACA (ssRNA, 2'-F pyrimidines) [SEQ33 aptamer]: the activity is at least 60 % inhibition. GGGCUGUGGAGCUGCUUAAACAAGCAAGUGAAAAAAACCACAGCCC (ssRNA, 2'-F pyrimidines) [SEQ26 aptamer]: the activity was at least 60 % inhibition. For GGGAGCUGCUUAAACAAGCAAGUGAAAAAAACCC (ssRNA, 2'-F pyrimidines) [SEQ31 aptamer], the activity is at least 60 % inhibition. In turn, GGGAAGCCUGUGGAGCUGCAGGAUGAAAAAAACCC (ssRNA, 2'-F pyrimidines) [SEQ36 aptamer] returned an activity of at least 60 % inhibition. Regarding GGGAAGCCGUGGAGCUGCGGAUGAAAAAAACCC (ssRNA, 2'-F pyrimidines) [SEQ88 aptamer], the activity is at least 60 % inhibition. The molecule GGAGCUGCCUACACUUUAGUAUGACAAACCUAGAGUGUAAAUGCUUC (ssRNA, 2'-F pyrimidines) [SEQ25 aptamer] yielded an activity of at least 60 % inhibition. Take GGGAAGCCUGUGGAGCUGCAGGAUGAAAAAAACCCAAAAUUAAAU (ssRNA, 2'-F pyrimidines) [SEQ27 aptamer]: the activity was at least 60 % inhibition. On to GUGGAGCUGUUAAACAACAAGUGAAAAAAACCAC (ssRNA, 2'-F pyrimidines) [SEQ34 aptamer], for which the activity was at least 60 % inhibition. GGGAAGCCUGUAAACAGCAGGAUGAAAAAAACCC (ssRNA, 2'-F pyrimidines) [SEQ89 aptamer] gave an activity of at least 60 % inhibition. The molecule GGGAGCCUGUAAACAGCAGGUGAAAAAAACCC (ssRNA, 2'-F pyrimidines) [SEQ90 aptamer] displayed an activity of at least 60 % inhibition.

The target is the same in another series. As to the kind of experiment: cell_activity; PC-12 neurite outgrowth, 500 nM aptamer. The settings on record: tags: R&D Systems; chain copies: 2. How it is done:
The physiological activity of aptamer was evaluated by a neurite outgrowth suppressive experiment using PC-12 cells. PC-12 cell, which is a cell line derived from rat adrenal gland pheochromocytoma, is a model cell of the nervous system, elongates neurite by NGF stimulation, and differentiates like nerve cells. Whether or not an aptamer inhibits the neurite outgrowth was evaluated. PC-12 cells were seeded on a 96 well flat-bottom plate coated with collagen, and a mixed solution of NGF (final concentration 25 ng/ml, or 1.9 nM) prereacted for 1 hr at 37° C. and an aptamer (final concentration 500 nM) was added to start the cell culture. Thereafter, the same amount of the aptamer was added twice every 24 hr and the level of neurite outgrowth was observed and evaluated on day 3 with a microscope. For evaluation, scores 0-3 were used, where score 0 is no neurite outgrowth, score 1 is slight neurite outgrowth, score 2 is neurite outgrowth to the nearby cell, and score 3 is markedly reticulated neurite outgrowth. The system wherein PC-12 cells were cultivated for 3 days with the addition of NGF alone was taken as a negative control, and system capable wherein the cells for 3 days without addition of NGF was taken as a positive control. […] Setting the score of the negative control as inhibitory activity 0%, and the score of the positive control as inhibitory activity 100%, the inhibitory activity (%) of the aptamer was calculated. An inhibitory activity of not less than 50% is shown with +, and that of less than 50% is shown with −.
In turn, UGUGGAGCUGCUUAAACAAGCAAGUGAAAAAAACCACA (ssRNA, 2'-F all pyrimidines; 2'-OMe at g2,a38) [SEQ32(2)] gave an activity of at least 50 % inhibition. Still for that read-out and setting: for B13 the value was at least 50 % inhibition.

For the molecule UGUGGAGCUGCUUAAACAAGCAAGUGAAAAAAACCACA (ssRNA, 2'-F all pyrimidines; 2'-OMe at a30,a31) [SEQ32(3)], the activity was at least 50 % inhibition. Same read-out and setting: for B14 the value was at least 50 % inhibition; for GGGAAGCCUGUGGAGCUGCAGGAUGAAAAAAACCCAAA (ssRNA, 2'-F all pyrimidines; 2'-OMe at a36,a37,a38) [SEQ35(3)], at least 50 % inhibition; for GGGAUAAAAAUAGAGUUUGAUAAACACCUGUAUUAAAACCC (ssRNA, 2'-F all pyrimidines; 2'-OMe at a35,a36) [SEQ30(3)], at least 50 % inhibition.

For the molecule GGGAUAAAAAUAGAGUUUGAUAAACACCUGUAUUAAAACCC (ssRNA, 2'-F all pyrimidines; 2'-OMe at a9,a10) [SEQ30(2)], the activity is at least 50 % inhibition. On the same count and under the same terms, the result for B15 reads at least 50 % inhibition.
